What is called EC50 is the concentration that produces a half-maximal response. In general, IC50 refers to the midpoint of a concentration-inhibition curve. The low end stands for greater potency in that assay, the high end for weaker potency in that assay.

Experiment [1] has as its target T1, human PD-1 protein (Acro, Catalog No. PD1-H5221) (human, UniProt Q15116 25-167).
T1 construct: Bought protein; also called human PD1-his; not shown: his tag
Description: ELISA, plate coated with human PD-1 protein. (An ELISA detects its analyte on a solid surface through an enzyme-linked reagent.)

Experiment [2] addresses T2, Biotinylated Human VEGF165 (Acro, Catalog No. VE5-H82Q0) (human, UniProt P15692-4 27-191, biotinylated (site not stated)).
T2 construct: Bought protein; also called Biotinylated-hVEGF165; Biotin-hVEGF165
Description: flow cytometry: antibody titrated on CHOK1-hCTLA4 cells, then mixture of hPD1-mFc and biotin-hVEGF165; PE streptavidin signal. The protocol: (§1) CHOK1-hCTLA4 cells were obtained by trypsin digestion, washed twice with PBS containing 2% FBS (FACS buffer), and the cell density was adjusted to about 8×10⁵ cells/ml. 200 μL/well of the cells were added to a 96-well U-bottom plate. After centrifugation at 300 g for 5 minutes, the supernatant was discarded and 100 μL of antibody solution serially diluted with FACS buffer was added in triplicate (with starting concentration of 200 nM, 3-fold serial dilution, and the same volume of FACS buffer was used as a negative control). Mixed well and incubated at 4° C. for 60 min. After washing the plate three times with FACS buffer, a mixture consisting of 1 μg/mL hPD1-mFc (Acro, Catalog No.: PD1-H5255) and 1 μg/mL Biotin-hVEGF165 in a 1:1 volume ratio was added to each well at 100 μL/well to detect the simultaneously binding activity of the trispecific antibodies to VEGF and PD-1 after binding to cell surface CTLA-4. […] After washing the plate three times with FACS buffer, 100 μL/well of PBS solution was added to resuspend the cells, and the fluorescence signal was detected on a flow cytometer. The binding activity was fitted using a four-parameter model, and the EC₅₀ value of each antibody was calculated.
A general note: Flow cytometry measures light scatter and fluorescence of single cells or particles in a stream.

Experiment [3] concerns the target T3, human VEGF165-his protein (Acro, Catalog No. VE5-H5248) (human, UniProt P15692-4 27-191).
T3 construct: Bought protein; also called hVEGF165-His; VEGFA; not shown: his tag
Description: ELISA, plate coated with human VEGF165-his. The protocol:
ELISA was used to determine the activity of the trispecific antibodies binding to the PD-1 protein: 1 μg/mL human PD-1 protein (Acro, Catalog No.: PD1-H5221) was used to coat a high-adsorption 96-well ELISA plate and incubated at 4° C. overnight. On the next day, the plate was washed three times with PBST solution and blocked with 1% BSA-PBS solution at 37° C. for 1 hour. At the same time, 3-fold gradient dilutions of the antibody were prepared with 1% BSA-PBS solution, with a starting concentration of 10 nM. The antibodies of each gradient concentration were added to the blocked 96-well ELISA plate at 100 µL/well in triplicate and incubated at 37° C. for 1 hour. The plate was then washed three times with 0.05% PBST solution, and 100 μL/well of HRP-labeled secondary antibody (Sigma, Catalog No.: A0170) diluted at 1:5000 was added to the ELISA plate and incubated at 37° C. for 1 hour. The plate was washed three times with 0.05% PBST solution and developed with TMB. The absorbance of the 96-well ELISA plate at 450 nm was detected by an ELISA reader. The OD₄₅₀ value was fitted using a four-parameter model to calculate the EC₅₀ value of each antibody binding to PD-1.
The binding activity of the trispecific antibodies to VEGFA protein was detected by ELISA method as described in Section 2.1. The used human VEGF165-his protein was purchased from Acro, Catalog No.: VE5-H5248.

The target in experiment [4] is T4, hPD1-mFc (Acro, Catalog No. PD1-H5255) (human, UniProt Q15116 25-167).
T4 construct: Bought protein; also called human PD-1 mouse Fc fusion; not shown: mouse Fc (mFc)
The experiment is described as follows: flow cytometry: antibody titrated on CHOK1-hCTLA4 cells, then mixture of hPD1-mFc and biotin-hVEGF165; AF647 anti-mIgG signal. The protocol: as §1

The target in experiment [5] is T5, human CTLA-4 protein (Acro, Catalog No. CT4-H52H9) (human, UniProt P16410 36-161).
T5 construct: Bought protein
The experiment is described as follows: ELISA, plate coated with human CTLA-4 protein.

In experiment [6] the target is T6, human CTLA-4 on the cell surface (human, UniProt P16410 36-223).
T6 construct: whole, on cells; also called CHO-hCTLA-4 cells; CHOK1-hCTLA4 cells
Description: flow cytometry competition, 293T-hPD-1-hCTLA-4 cells (PD-1 co-expressed), biotin-human CD80.

For experiment [7], the target named is human PD-1 protein (Acro, PD1-H5257) (human, UniProt Q15116 25-167). Description: competitive ELISA, PD-1 coated, biotin-PD-L1 as labelled ligand.
Chain of human PD-1 protein (Acro, PD1-H5257) (Q15116 25-167 limits assumed): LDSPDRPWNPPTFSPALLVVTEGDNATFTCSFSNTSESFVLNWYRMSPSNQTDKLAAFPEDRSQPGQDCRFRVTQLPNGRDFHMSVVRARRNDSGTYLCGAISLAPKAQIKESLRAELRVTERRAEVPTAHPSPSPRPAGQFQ

T2 sequence (P15692 other isoform, or with tags, fused parts or gaps limits assumed): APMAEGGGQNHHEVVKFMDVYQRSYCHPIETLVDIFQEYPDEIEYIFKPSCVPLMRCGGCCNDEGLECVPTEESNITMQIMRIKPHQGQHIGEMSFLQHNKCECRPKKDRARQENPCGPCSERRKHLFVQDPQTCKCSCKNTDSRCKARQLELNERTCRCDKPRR
T3 sequence (P15692 other isoform, or with tags, fused parts or gaps limits assumed): as above
T5 sequence (P16410 36-161 limits assumed): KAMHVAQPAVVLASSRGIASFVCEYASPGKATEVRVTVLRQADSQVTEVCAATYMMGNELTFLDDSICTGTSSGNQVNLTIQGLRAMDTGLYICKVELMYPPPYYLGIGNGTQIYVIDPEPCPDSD
T4 sequence (Q15116 25-167 limits assumed): as the sequence (Q15116 25-167 limits assumed) above
T1 sequence (Q15116 25-167 limits assumed): as above
T6 sequence (P16410 36-223): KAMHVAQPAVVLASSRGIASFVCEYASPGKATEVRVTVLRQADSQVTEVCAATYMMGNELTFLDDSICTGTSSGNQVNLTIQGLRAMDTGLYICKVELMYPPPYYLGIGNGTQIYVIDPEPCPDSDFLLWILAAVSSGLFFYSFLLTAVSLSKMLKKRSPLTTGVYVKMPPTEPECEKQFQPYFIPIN

B1: HC010-F9 (trispecific antibody, human IgG4 S228P, kappa)
heavy: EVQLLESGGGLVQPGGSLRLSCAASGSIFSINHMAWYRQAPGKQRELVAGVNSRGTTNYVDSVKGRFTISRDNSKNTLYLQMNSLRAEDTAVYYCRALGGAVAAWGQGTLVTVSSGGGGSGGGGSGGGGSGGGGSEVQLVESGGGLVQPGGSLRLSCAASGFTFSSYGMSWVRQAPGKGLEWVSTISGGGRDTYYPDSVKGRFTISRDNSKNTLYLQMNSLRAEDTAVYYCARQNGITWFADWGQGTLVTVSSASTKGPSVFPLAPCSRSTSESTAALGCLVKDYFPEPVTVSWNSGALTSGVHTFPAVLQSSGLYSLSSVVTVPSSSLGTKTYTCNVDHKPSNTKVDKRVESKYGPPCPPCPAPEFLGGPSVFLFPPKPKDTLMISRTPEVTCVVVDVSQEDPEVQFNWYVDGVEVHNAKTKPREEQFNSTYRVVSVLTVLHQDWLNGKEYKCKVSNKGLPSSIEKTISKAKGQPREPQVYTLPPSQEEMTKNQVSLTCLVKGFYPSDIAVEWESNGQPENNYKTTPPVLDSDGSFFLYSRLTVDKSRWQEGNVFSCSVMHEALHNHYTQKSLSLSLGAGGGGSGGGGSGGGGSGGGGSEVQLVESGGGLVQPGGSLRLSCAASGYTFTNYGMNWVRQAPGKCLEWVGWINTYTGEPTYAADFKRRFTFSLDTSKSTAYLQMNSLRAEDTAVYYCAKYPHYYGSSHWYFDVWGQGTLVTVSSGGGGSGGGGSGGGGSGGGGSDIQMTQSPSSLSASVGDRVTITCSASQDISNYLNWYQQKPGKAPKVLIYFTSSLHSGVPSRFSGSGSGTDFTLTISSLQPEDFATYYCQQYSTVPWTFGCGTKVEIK
light: DIQMTQSPSSLSASVGDRVTITCRASESVDNYGISFMNWYQQKPGKAPKLLIYAASNQGSGVPSRFSGSGSGTDFTLTISSLQPEDFATYYCQQSKEVPWTFGGGTKVEIKRTVAAPSVFIFPPSDEQLKSGTASVVCLLNNFYPREAKVQWKVDNALQSGNSQESVTEQDSKDSTYSLSSTLTLSKADYEKHKVYACEVTHQGLSSPVTKSFNRGEC
notes: light: CQ1-3/1-11 VL-kappa; also called H010-F9
Regarding B1, the EC50 worked out at 0.082 nM in experiment [1]; 1.38 nM in experiment [2]; 0.111 nM in experiment [3]; 1.53 nM in experiment [4]; 0.031 nM in experiment [5]. The values for the IC50 in experiment [6] and in experiment [7] were around 0.002 nM and 0.923 nM, respectively.

B2: HC010-F10 (trispecific antibody, human IgG4 S228P, kappa)
heavy: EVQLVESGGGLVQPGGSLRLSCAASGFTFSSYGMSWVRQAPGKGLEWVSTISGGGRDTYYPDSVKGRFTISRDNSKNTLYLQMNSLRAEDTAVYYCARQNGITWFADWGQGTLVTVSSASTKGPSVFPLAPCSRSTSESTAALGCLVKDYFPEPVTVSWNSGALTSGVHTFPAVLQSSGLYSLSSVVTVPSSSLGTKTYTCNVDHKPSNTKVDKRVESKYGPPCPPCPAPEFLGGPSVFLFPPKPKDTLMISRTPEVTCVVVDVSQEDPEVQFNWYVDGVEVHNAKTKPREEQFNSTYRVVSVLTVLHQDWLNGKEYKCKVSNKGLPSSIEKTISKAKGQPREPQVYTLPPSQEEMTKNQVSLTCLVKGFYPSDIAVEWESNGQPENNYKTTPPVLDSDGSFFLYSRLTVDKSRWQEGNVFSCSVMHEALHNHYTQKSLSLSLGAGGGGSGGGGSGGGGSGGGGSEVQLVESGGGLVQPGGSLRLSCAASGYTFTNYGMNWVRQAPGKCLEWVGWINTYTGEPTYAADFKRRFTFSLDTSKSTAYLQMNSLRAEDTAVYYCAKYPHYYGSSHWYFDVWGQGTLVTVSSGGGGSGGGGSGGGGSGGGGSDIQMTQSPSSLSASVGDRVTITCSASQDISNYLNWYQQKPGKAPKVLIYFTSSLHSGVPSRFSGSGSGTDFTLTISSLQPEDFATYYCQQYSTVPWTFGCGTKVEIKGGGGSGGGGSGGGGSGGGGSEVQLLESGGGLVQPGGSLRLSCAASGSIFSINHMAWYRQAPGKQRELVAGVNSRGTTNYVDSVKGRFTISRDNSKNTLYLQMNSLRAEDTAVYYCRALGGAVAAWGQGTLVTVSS
light: DIQMTQSPSSLSASVGDRVTITCRASESVDNYGISFMNWYQQKPGKAPKLLIYAASNQGSGVPSRFSGSGSGTDFTLTISSLQPEDFATYYCQQSKEVPWTFGGGTKVEIKRTVAAPSVFIFPPSDEQLKSGTASVVCLLNNFYPREAKVQWKVDNALQSGNSQESVTEQDSKDSTYSLSSTLTLSKADYEKHKVYACEVTHQGLSSPVTKSFNRGEC
notes: light: CQ1-3/1-11 VL-kappa; also called H010-F10
As to B2, the EC50 in experiment [1] came to 0.093 nM; in experiment [2], 1.37 nM; in experiment [3], 0.121 nM; in experiment [4], 2.73 nM; in experiment [5], 0.093 nM. The figures for the IC50 in experiment [6] and in experiment [7] were 0.056 nM and 0.837 nM, respectively.

(Values after patent US20260116960A1 (SHANGHAI HONGCHENG BIOPHARMACEUTICAL, published 2026).)
